# In US20250215412A1 (NOVOZYMES A S, published 2025):
# Positions count from the first letter of the chain named. Names may count otherwise.
# T1: Chryseobacterium sp-62563 deamidase polypeptide (second polypeptide, deamidase domain), wildtype (Chryseobacterium sp-62563)
# T1 sequence: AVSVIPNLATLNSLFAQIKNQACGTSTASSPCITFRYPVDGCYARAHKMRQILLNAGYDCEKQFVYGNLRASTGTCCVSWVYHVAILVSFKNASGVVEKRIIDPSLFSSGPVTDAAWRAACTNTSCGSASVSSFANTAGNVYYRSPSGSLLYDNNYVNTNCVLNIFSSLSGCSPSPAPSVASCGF
# B1: Chryseobacterium sp-62563 propeptide Y94A (protein)
# chain: NQDPNLVAKESNETAMKDFGKTVPVGIEKEDGKFKISFMVTAQPYEIKDSKENAAYISMIKTAVENETPIHVFLKANTNEIAKVDKATDDDIRAFKSVFTKEVKEENRK
# B2: Chryseobacterium sp-62563 propeptide V98Y (protein)
# chain: B1 chain with A94Y, V98Y
# B3: Chryseobacterium sp-62563 propeptide Y45M (protein)
# chain: B1 chain with Y45M, A94Y
# B4: Chryseobacterium sp-62563 propeptide F99K (protein)
# chain: B1 chain with A94Y, F99K
# B5: Chryseobacterium sp-62563 propeptide F99R (protein)
# chain: B1 chain with A94Y, F99R
# B6: Chryseobacterium sp-62563 propeptide Y94P (protein)
# chain: B1 chain with A94P
# B7: Chryseobacterium sp-62563 propeptide Y94Q (protein)
# chain: B1 chain with A94Q
# B8: Chryseobacterium sp-62563 propeptide Y94I (protein)
# chain: B1 chain with A94I
# B9: Chryseobacterium sp-62563 propeptide F95D (protein)
# chain: B1 chain with A94Y, F95D
# B10: Chryseobacterium sp-62563 propeptide Y94T (protein)
# chain: B1 chain with A94T
# B11: Chryseobacterium sp-62563 propeptide F99C (protein)
# chain: B1 chain with A94Y, F99C
# B12: Chryseobacterium sp-62563 propeptide F95G (protein)
# chain: B1 chain with A94Y, F95G
# B13: Chryseobacterium sp-62563 propeptide Y94E (protein)
# chain: B1 chain with A94E
# B14: Chryseobacterium sp-62563 propeptide Y45I (protein)
# chain: B1 chain with Y45I, A94Y
# B15: Chryseobacterium sp-62563 propeptide F99W (protein)
# chain: B1 chain with A94Y, F99W
# B16: Chryseobacterium sp-62563 propeptide F99Y (protein)
# chain: B1 chain with A94Y, F99Y
# B17: Chryseobacterium sp-62563 propeptide F99D (protein)
# chain: B1 chain with A94Y, F99D
# B18: Chryseobacterium sp-62563 propeptide F99Q (protein)
# chain: B1 chain with A94Y, F99Q
# B19: Chryseobacterium sp-62563 propeptide V98P (protein)
# chain: B1 chain with A94Y, V98P
# Target: T1, Chryseobacterium sp-62563 deamidase polypeptide (second polypeptide, deamidase domain), wildtype (Chryseobacterium sp-62563)
# Experiment: cell-based or functional assay
Leakage activity [%],Relative activity of maturated deamidase (% initial rate),NanoDSF thermal unfolding temperature [° C.],Binder
0,72,,B1
0,31,,B2
,40,79,B3
4,> 100,75.4,B4
0,76,,B5
3,76,75.2,B6
0,,,B7
0,60,,B8
7,44,,B9
0,> 100,,B10
0,52,,B11
0,91,,B12
0,,,B13
,> 100,76.4,B14
,81,,B15
,85,,B16
9,69,,B17
4,48,,B18
2,> 100,,B19
